Columns and labels:
TGF-β1 [1] = biological target: T1, TGF-β1 (human, UniProt P01137 279-390); test: indirect ELISA, TGF-β1 coated at 1 µg/mL
T1 construct: Bought protein; also called human TGF-β1; TGF-β1 protein

TGF-β1 [2] = biological target: T1, TGF-β1; test: competition ELISA vs TGF-βRII-His-Biotin 0.01 µg/mL on coated TGF-β1
TGF-β2 = biological target: T2, TGF-β2 (UniProt P61812 303-414); test: indirect ELISA, TGF-β2 coated at 2 µg/mL
T2 construct: Bought protein; also called TGF-β2 protein
T2 sequence (looked up): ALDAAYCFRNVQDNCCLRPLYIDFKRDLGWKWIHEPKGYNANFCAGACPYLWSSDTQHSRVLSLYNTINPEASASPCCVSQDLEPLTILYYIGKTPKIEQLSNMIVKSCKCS

- EC50 (TGF-β1 [1]): 0.356 nM
- EC50 (TGF-β1 [2]): 6.47 nM
- EC50 (TGF-β2): 1.03 nM
B1: TGF-βRII-mFc (Fc fusion, UniProt P37173 23-159, looked up, not shown: a dimerising Fc or GST)
chain: TIPPHVQKSVNNDMIVTDNNGAVKFPQLCKFCDVRFSTCDNQKSCMSNCSITSICEKPQEVCVAVWRKNDENITLETVCHDPKLPYHDFILEDAASPKCIMKEKKKPGETFFMCSCSSDECNDNIIFSEEYNTSNPD
notes: also called TGF-βR2-mFc

Reference: patent US20250129156A1 (AKESO BIOPHARMA, published 2025)
